Consider one molecule from publication PMC2172558 (The Journal of Cell Biology, 2004).

The assay concerns the target T1, recombinant, purified Xenopus β-catenin (Xenopus, UniProt P26233 1-781).
T1 sequence: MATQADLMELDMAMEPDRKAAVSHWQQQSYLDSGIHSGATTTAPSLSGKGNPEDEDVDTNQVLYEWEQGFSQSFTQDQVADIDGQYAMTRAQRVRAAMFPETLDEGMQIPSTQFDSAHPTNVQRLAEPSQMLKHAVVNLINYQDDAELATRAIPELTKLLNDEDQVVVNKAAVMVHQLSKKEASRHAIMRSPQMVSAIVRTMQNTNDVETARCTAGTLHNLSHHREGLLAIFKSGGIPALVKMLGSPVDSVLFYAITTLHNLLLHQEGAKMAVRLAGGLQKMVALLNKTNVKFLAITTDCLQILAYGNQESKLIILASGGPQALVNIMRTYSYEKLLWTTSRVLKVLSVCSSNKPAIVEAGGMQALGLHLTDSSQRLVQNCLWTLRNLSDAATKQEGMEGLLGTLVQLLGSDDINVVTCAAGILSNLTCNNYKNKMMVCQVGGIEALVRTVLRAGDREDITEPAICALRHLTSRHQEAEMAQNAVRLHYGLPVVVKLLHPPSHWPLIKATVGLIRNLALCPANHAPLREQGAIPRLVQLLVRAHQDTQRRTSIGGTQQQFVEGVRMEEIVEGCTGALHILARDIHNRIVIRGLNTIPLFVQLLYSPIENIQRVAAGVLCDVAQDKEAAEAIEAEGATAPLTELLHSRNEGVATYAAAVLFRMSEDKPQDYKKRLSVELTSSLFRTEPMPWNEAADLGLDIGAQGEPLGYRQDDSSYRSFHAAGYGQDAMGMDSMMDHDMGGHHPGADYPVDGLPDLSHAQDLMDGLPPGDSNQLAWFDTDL
Put plainly: pull-down.

B1: Xenopus C-cadherin cytoplasmic domain GST fusion protein (domain or fragment)
chain: not shown
B1: the binding result was “binds”.
